Where a chain is given by its changes, count along the chain named. Blank lines part the entries; values can stand above or below the binder they belong to.
Legend:
[1] = target: neuropeptide Y (Homo sapiens), P01303; assay: competition; conditions: remark: other sources report otherwise
K^18-TAMRA-NPY = assay: fluorescence polarisation; various concentrations of receptor in small DMPC/DHPC bicelles with 50 nM (K^18-TAMRA)-NPY, 1 h at room temperature, measured at 20 °C; sigmoidal dose-response fit

Kd [1]: 2.3 nM
B1: neuropeptide Y receptor Y2, P49146 (protein)
chain: MGPIGAEADENQTVEEMKVEQYGPQTTPRGELVPDPEPELIDSTKLIEVQVVLILAYCSIILLGVIGNSLVIHVVIKFKSMRTVTNFFIANLAVADLLVNTLCLPFTLTYTLMGEWKMGPVLCHLVPYAQGLAVQVSTITLTVIALDRHRCIVYHLESKISKRISFLIIGLAWGISALLASPLAIFREYSLIEIIPDFEIVACTEKWPGEEKSIYGTVYSLSSLLILYVLPLGIISFSYTRIWSKLKNHVSPGAANDHYHQRRQKTTKMLVCVVVVFAVSWLPLHAFQLAVDIDSQVLDLKEYKLIFTVFHIIAMCSTFANPLLYGWMNSNYRKAFLSAFRCEQRLDAIHSEVSVTFKAKKNLEVRKNSGPNDSFTEATNV

Kd (K^18-TAMRA-NPY): 61.4 nM
B2: Y2R_A202^45.49C-Δ6Cys-polyHis, P49146 1-381 (receptor)
chain: B1 chain with C58A, C103A, C151A, A202C, C272S, C316A, C342S
modifications: not checked
